# Data taken from patent publication US20060053496A1 (UNIVERSITY OF NORTH CAROLINA AT CHAPEL HILL, published 2006).
# B1: HA-IRAK1 (enzyme, human, UniProt P51617 1-712, looked up)
# chain: MAGGPGPGEPAAPGAQHFLYEVPPWVMCRFYKVMDALEPADWCQFAALIVRDQTELRLCERSGQRTASVLWPWINRNARVADLVHILTHLQLLRARDIITAWHPPAPLPSPGTTAPRPSSIPAPAEAEAWSPRKLPSSASTFLSPAFPGSQTHSGPELGLVPSPASLWPPPPSPAPSSTKPGPESSVSLLQGARPFPFCWPLCEISRGTHNFSEELKIGEGGFGCVYRAVMRNTVYAVKRLKENADLEWTAVKQSFLTEVEQLSRFRHPNIVDFAGYCAQNGFYCLVYGFLPNGSLEDRLHCQTQACPPLSWPQRLDILLGTARAIQFLHQDSPSLIHGDIKSSNVLLDERLTPKLGDFGLARFSRFAGSSPSQSSMVARTQTVRGTLAYLPEEYIKTGRLAVDTDTFSFGVVVLETLAGQRAVKTHGARTKYLKDLVEEEAEEAGVALRSTQSTLQAGLAADAWAAPIAMQIYKKHLDPRPGPCPPELGLGLGQLACCCLHRRAKRRPPMTQVYERLEKLQAVVAGVPGHSEAASCIPPSPQENSYVSSTGRAHSGAAPWQPLAAPSGASAQAAEQLQRGPNQPVESDESLGGLSAALRSWHLTPSCPLDPAPLREAGCPQGDTAGESSWGSGPGSRPTAVEGLALGSSASSSSEPPQIIINPARQKMVQKLALYEDGALDSLQLLSSSSLPGLGLEQDRQGPEESDEFQS
# notes: not shown: double 5' (N-terminal) HA tag
# Molecular target: T1, FLAG-tagged Monarch-1 (human, UniProt P59046 1-1061)
# T1 construct: Expressed in transfected 293T cells and immunoprecipitated from lysate with anti-FLAG M2-agarose; also called FLAG-Monarch-1; Caterpiller 19.3; not shown: N-terminal FLAG tag added by PCR
# T1 sequence: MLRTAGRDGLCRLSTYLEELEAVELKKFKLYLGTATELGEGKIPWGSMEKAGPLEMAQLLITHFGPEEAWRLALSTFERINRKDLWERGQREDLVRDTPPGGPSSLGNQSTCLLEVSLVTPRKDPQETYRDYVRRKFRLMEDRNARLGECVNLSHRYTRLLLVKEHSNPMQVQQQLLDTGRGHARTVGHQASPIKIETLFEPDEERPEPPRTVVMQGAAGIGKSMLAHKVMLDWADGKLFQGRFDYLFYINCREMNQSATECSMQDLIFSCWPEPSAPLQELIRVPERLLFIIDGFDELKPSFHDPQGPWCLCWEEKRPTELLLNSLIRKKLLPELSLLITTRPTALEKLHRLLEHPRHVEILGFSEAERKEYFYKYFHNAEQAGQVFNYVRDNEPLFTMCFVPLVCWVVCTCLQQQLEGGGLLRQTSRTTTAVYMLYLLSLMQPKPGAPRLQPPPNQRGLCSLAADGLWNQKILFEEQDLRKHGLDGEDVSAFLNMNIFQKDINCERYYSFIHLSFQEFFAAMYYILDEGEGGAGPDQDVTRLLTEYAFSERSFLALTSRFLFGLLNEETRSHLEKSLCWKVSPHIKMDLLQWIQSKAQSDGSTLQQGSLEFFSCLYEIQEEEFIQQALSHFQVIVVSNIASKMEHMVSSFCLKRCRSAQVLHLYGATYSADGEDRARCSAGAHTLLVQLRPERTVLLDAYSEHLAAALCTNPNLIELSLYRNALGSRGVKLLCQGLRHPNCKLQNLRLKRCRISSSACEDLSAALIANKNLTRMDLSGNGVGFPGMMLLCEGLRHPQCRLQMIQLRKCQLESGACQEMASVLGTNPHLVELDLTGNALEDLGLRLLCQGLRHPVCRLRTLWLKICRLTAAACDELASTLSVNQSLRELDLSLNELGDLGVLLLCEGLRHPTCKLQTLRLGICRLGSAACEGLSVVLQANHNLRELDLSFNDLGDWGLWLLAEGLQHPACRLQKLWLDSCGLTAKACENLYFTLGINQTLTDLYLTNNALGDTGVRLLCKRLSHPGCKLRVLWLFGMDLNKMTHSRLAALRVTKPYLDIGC
# Experiment: co-immunoprecipitation from transfected 293T cells (anti-FLAG M2-agarose IP, anti-HA western blot)
# Procedure: Transfections and Immunoprecipitations. 2.5 million 293T cells were seeded in 10-cm cell culture plates. Eighteen to twenty-four hours later, 3 μg of each of the indicated plasmids was transfected using FUGENE6™ (Roche, Indianapolis, Ind.) at a 3:1 FUGENE6™ to DNA ratio and the cells were incubated an additional 18 to 24 hours. Cells were lysed in 0.5% NP-40, 150 mM NaCl, 50 mM Tris pH 8.0, 160 mM EDTA, 50 mM NaF, 10 mM sodium phosphate supplemented with protease inhibitor cocktail (Roche, Indianapolis, Ind.). Nuclei were removed and the resulting supernatant was pre-cleared with mouse IgG-conjugated agarose (Sigma, St. Louis) for 1 hour. FLAG®-tagged proteins were subsequently immunoprecipitated overnight with 35 μl M2-agarose equilibrated in lysis buffer. Beads were washed four times in lysis buffer and proteins eluted in sample buffer (20% Glycerol, 4% SDS, 130 mM Tris pH 6.8, 20 mM DTT) for western blot analysis.
# Monarch-1 Associates with TRAF6 but not MyD88 or IRAK1. In addition to the proteins identified by MALDI-MS, 293T cells were transfected with Monarch-1 cDNA and one of the following: HA-MyD88, HA-TRAF6, or HA-IRAK1. Twenty-four hours later the cells were lysed and Monarch-1-containing protein complexes were immunoprecipitated with anti-FLAG® M2-agarose beads overnight. […]
binder,measurement,value
B1,binding result,no binding
